The target in the assay is Recombinant P-selectin protein (UniProt P16109). Kind of assay: SPR; BIAcore T200; recombinant P-selectin immobilised by carbodiimide chemistry on a CM4 sensor chip (ligand); PSGL-1-targeted and non-targeted liposomes as analyte. In general terms: SPR reads the build-up and loss of mass on a sensor chip optically.

Data on one substance can be found in publication PMC7699624.

Chain of UniProt P16109 (P16109 42-830): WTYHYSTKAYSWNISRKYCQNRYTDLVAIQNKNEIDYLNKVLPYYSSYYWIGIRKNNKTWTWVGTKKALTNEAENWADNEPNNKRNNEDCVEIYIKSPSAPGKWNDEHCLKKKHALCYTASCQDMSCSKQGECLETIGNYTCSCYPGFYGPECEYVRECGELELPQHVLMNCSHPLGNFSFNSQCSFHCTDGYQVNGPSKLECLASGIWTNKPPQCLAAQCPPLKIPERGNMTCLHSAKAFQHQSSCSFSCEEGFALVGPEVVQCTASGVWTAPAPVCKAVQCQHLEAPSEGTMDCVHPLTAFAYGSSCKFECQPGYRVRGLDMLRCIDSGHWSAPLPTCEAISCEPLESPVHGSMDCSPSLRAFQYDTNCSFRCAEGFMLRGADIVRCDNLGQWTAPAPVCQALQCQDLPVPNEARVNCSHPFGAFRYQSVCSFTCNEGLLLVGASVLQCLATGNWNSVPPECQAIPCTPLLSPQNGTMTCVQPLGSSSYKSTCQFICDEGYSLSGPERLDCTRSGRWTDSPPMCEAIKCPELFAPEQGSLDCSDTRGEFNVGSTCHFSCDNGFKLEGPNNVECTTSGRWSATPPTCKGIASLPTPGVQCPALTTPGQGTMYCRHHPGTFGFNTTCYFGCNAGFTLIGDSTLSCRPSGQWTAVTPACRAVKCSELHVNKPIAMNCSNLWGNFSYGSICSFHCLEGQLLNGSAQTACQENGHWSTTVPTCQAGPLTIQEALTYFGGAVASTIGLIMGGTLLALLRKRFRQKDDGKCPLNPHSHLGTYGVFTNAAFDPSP

“Recombinant P-selectin glycoprotein ligand-1 (PSGL-1) protein, conjugated to the surface of liposomes (from UniProt Q14242 42-412)”: the fold increase in binding against non-targeted liposomes amounted to 8 fold.
